Test: Phase 1/2 MRZ + BEV and MRZ monotherapy in recurrent G4 MG: adverse events, DLT
Details: for Ataxia: Treatment Related Grade ≥3 AE, # patients / Confusional State: Treatment Related Grade ≥3 AE, # patients / Delusion: Treatment Related Grade ≥3 AE, # patients / Dyspnea: Treatment Related Grade ≥3 AE, # patients / Embolism: Treatment Related Grade ≥3 AE, # patients / Fall: Treatment Related Grade ≥3 AE, # patients / Fatigue: Treatment Related Grade ≥3 AE, # patients / Hallucination: Treatment Related Grade ≥3 AE, # patients / Headache: Treatment Related Grade ≥3 AE, # patients / Hypertension: Treatment Related Grade ≥3 AE, # patients / Hyponatremia: Treatment Related Grade ≥3 AE, # patients / Insomnia: Treatment Related Grade ≥3 AE, # patients / Intracranial Hemorrhage: Treatment Related Grade ≥3 AE, # patients / Optic Nerve Disorder: Treatment Related Grade ≥3 AE, # patients / Proteinuria: Treatment Related Grade ≥3 AE, # patients: attributed to labelled agent
[1] = MRZ 0.7 mg/m^2 + BEV, Cohort 2, N = 3
[2] = MRZ 0.7 mg/m^2 Cohort 2 (N = 3)
[3] = MRZ 0.8 mg/m^2 + BEV, Cohorts 3 & 4, N = 27
[4] = MRZ 0.8 mg/m^2 + BEV, N = 27, related to the labelled drug
[5] = MRZ 0.8 mg/m^2 Cohorts 3 & 4 (N = 27)

Procedure: The clinical trial was a Phase 1, dose-escalation (3+3 design) followed by dose-expansion at recommended Phase 2 Dose (RP2D).
The drugs were infused on 28-Day Cycles. Tumor response is assessed every other cycle by RANO criteria.
The safety data will be presented in individual listings and summary tables, including frequency tables for adverse events and frequency and shift tables for laboratory variables. The safety population will be all subjects who received at least one dose of either study drug in Phase 1 or MRZ in Phase 2.

bevacizumab [reference compound]
Confusional State, Treatment Related Grade ≥3 AE, patients [1]: 0 | Delusion, Treatment Related Grade ≥3 AE, patients [1]: 0 | Dyspnea, Treatment Related Grade ≥3 AE, patients [1]: 0 | Embolism, Treatment Related Grade ≥3 AE, patients [1]: 0 | Fall, Treatment Related Grade ≥3 AE, patients [1]: 0 | Fatigue, Treatment Related Grade ≥3 AE, patients [1]: 0 | Hallucination, Treatment Related Grade ≥3 AE, patients [1]: 0 | Headache, Treatment Related Grade ≥3 AE, patients [1]: 0 | Hypertension, Treatment Related Grade ≥3 AE, patients [1]: 1 | Hyponatremia, Treatment Related Grade ≥3 AE, patients [1]: 0 | Insomnia, Treatment Related Grade ≥3 AE, patients [1]: 0 | Intracranial Hemorrhage, Treatment Related Grade ≥3 AE, patients [1]: 0 | Optic Nerve Disorder, Treatment Related Grade ≥3 AE, patients [1]: 0 | Proteinuria, Treatment Related Grade ≥3 AE, patients [1]: 1 | Ataxia, Treatment Related Grade ≥3 AE, patients (MRZ 0.7 mg/m^2 + BEV, Cohort 2, N = 3, related to the labelled drug): 0 | Ataxia: Treatment Related Grade ≥3 AE, # patients [2]: 0 | Confusional State: Treatment Related Grade ≥3 AE, # patients [2]: 0 | Delusion: Treatment Related Grade ≥3 AE, # patients [2]: 0 | Dyspnea: Treatment Related Grade ≥3 AE, # patients [2]: 0 | Embolism: Treatment Related Grade ≥3 AE, # patients [2]: 0 | Fall: Treatment Related Grade ≥3 AE, # patients [2]: 0 | Fatigue: Treatment Related Grade ≥3 AE, # patients [2]: 0 | Hallucination: Treatment Related Grade ≥3 AE, # patients [2]: 0 | Headache: Treatment Related Grade ≥3 AE, # patients [2]: 0 | Hypertension: Treatment Related Grade ≥3 AE, # patients [2]: 1 | Hyponatremia: Treatment Related Grade ≥3 AE, # patients [2]: 0 | Insomnia: Treatment Related Grade ≥3 AE, # patients [2]: 0 | Intracranial Hemorrhage: Treatment Related Grade ≥3 AE, # patients [2]: 0 | Optic Nerve Disorder: Treatment Related Grade ≥3 AE, # patients [2]: 0 | Proteinuria: Treatment Related Grade ≥3 AE, # patients [2]: 1 | Fatigue, treatment-related AE, patients (MRZ 0.8 mg/m^2 + BEV Cohorts 3 & 4, N = 27, related to the labelled drug (MRZ + BEV = related to both)): 18 (66.7%) | Confusional State, Treatment Related Grade ≥3 AE, patients [3]: 0 | Delusion, Treatment Related Grade ≥3 AE, patients [3]: 0 | Dyspnea, Treatment Related Grade ≥3 AE, patients [3]: 1 | Embolism, Treatment Related Grade ≥3 AE, patients [3]: 1 | Fall, Treatment Related Grade ≥3 AE, patients [3]: 0 | Fatigue, Treatment Related Grade ≥3 AE, patients [3]: 1 | Hallucination, Treatment Related Grade ≥3 AE, patients [3]: 0 | Headache, Treatment Related Grade ≥3 AE, patients [3]: 1 | Hypertension, Treatment Related Grade ≥3 AE, patients [3]: 5 | Hyponatremia, Treatment Related Grade ≥3 AE, patients [3]: 0 | Insomnia, Treatment Related Grade ≥3 AE, patients [3]: 0 | Intracranial Hemorrhage, Treatment Related Grade ≥3 AE, patients [3]: 1 | Optic Nerve Disorder, Treatment Related Grade ≥3 AE, patients [3]: 1 | Proteinuria, Treatment Related Grade ≥3 AE, patients [3]: 0 | Ataxia, Treatment Related Grade ≥3 AE, patients (MRZ 0.8 mg/m^2 + BEV, Cohorts 3 & 4, N = 27, related to the labelled drug): 0 | Anaemia, treatment-related AE, patients [4]: 0 (0.0%) | Ataxia, treatment-related AE, patients [4]: 0 (0.0%) | Confusional state, treatment-related AE, patients [4]: 1 (3.7%) | Constipation, treatment-related AE, patients [4]: 1 (3.7%) | Diarrhoea, treatment-related AE, patients [4]: 1 (3.7%) | Dizziness, treatment-related AE, patients [4]: 1 (3.7%) | Dysphonia, treatment-related AE, patients [4]: 10 (37.0%) | Epistaxis, treatment-related AE, patients [4]: 7 (25.9%) | Fall, treatment-related AE, patients [4]: 0 (0.0%) | Hallucination, treatment-related AE, patients [4]: 0 (0.0%) | Headache, treatment-related AE, patients [4]: 6 (22.2%) | Infusion site pain, treatment-related AE, patients [4]: 1 (3.7%) | Muscular weakness, treatment-related AE, patients [4]: 1 (3.7%) | Platelet count decreased, treatment-related AE, patients [4]: 3 (11.1%) | Upper-airway cough syndrome, treatment-related AE, patients [4]: 5 (18.5%) | Ataxia: Treatment Related Grade ≥3 AE, # patients [5]: 0 | Confusional State: Treatment Related Grade ≥3 AE, # patients [5]: 0 | Delusion: Treatment Related Grade ≥3 AE, # patients [5]: 0 | Dyspnea: Treatment Related Grade ≥3 AE, # patients [5]: 1 | Embolism: Treatment Related Grade ≥3 AE, # patients [5]: 1 | Fall: Treatment Related Grade ≥3 AE, # patients [5]: 0 | Fatigue: Treatment Related Grade ≥3 AE, # patients [5]: 1 | Hallucination: Treatment Related Grade ≥3 AE, # patients [5]: 0 | Headache: Treatment Related Grade ≥3 AE, # patients [5]: 1 | Hypertension: Treatment Related Grade ≥3 AE, # patients [5]: 5 | Hyponatremia: Treatment Related Grade ≥3 AE, # patients [5]: 0 | Insomnia: Treatment Related Grade ≥3 AE, # patients [5]: 0 | Intracranial Hemorrhage: Treatment Related Grade ≥3 AE, # patients [5]: 1 | Optic Nerve Disorder: Treatment Related Grade ≥3 AE, # patients [5]: 1 | Proteinuria: Treatment Related Grade ≥3 AE, # patients [5]: 0 | Anaemia: # pts, related to BEV (MRZ+BEV, 12 Sep. 2016): 0 | Anxiety: # pts, related to BEV (MRZ+BEV, 12 Sep. 2016): 0 | Aphasia: # pts, related to BEV (MRZ+BEV, 12 Sep. 2016): 0 | Appendicitis Perforated: # pts, related to BEV (MRZ+BEV, 12 Sep. 2016): 0 | Asthenia: # pts, related to BEV (MRZ+BEV, 12 Sep. 2016): 0 | Ataxia: # pts, related to BEV (MRZ+BEV, 12 Sep. 2016): 0 | Confusional State: # pts, related to BEV (MRZ+BEV, 12 Sep. 2016): 0 | Constipation: # pts, related to BEV (MRZ+BEV, 12 Sep. 2016): 0 | Convulsion: # pts, related to BEV (MRZ+BEV, 12 Sep. 2016): 0 | Delusion: # pts, related to BEV (MRZ+BEV, 12 Sep. 2016): 0 | Depressed Level of Consciousness: # pts, related to BEV (MRZ+BEV, 12 Sep. 2016): 0 | Diarrhoea: # pts, related to BEV (MRZ+BEV, 12 Sep. 2016): 0 | Dizziness: # pts, related to BEV (MRZ+BEV, 12 Sep. 2016): 0 | Dysarthria: # pts, related to BEV (MRZ+BEV, 12 Sep. 2016): 0 | Dysphagia: # pts, related to BEV (MRZ+BEV, 12 Sep. 2016): 0 | Dysphonia: # pts, related to BEV (MRZ+BEV, 12 Sep. 2016): 10 | Dyspnoea: # pts, related to BEV (MRZ+BEV, 12 Sep. 2016): 0

— US10894036B2, “Use of marizomib for the treatment of central nervous system (CNS) cancers” (Celgene International II Sàrl, priority 2016, dated 2021)
